The nanobody polyreactivity screen of Harvey et al. (2022)

Assay: yeast display, Sf9 membrane polyspecificity reagent, FACS + sequencing; frameworks hold sequencing errors
Outline: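 After 36–48 hours of galactose induction, yeast (Saccharomyces cerevisiae BJ5465) displaying a synthetic nanobody library were stained at 4 °C for 1 hour with 10% biotinylated, detergent-solubilized Sf9 membrane reagent. Streptavidin microbeads enriched the stained cells before FACS sorting into low and high (top ~1%) gates on anti-HA and streptavidin fluorescence. Each clone's polyreactivity label reflects its gate of origin.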

Sequence | polyreactivity (PSR sort gate)
QVQLVESGGGLVQAGGSLRLSCAASGSIIQGYVMGWYRQAPGKERELDAAISNSGSSTYYADSVKGRFTISRDNAKNTVYLQMNSLKPEDTAVYYCAVLRSYRGSKYGYWGQGTQVTVSS | high polyreactivity
QVQLVESGGGLVQAGGSLRLSCAASGSTIVVNAMGWSRQAPGKERELVASISWTTGSTYYADSVKGRFTISRDNAKNTVFLQMNSLKPEDTAVYYCAADILPRYSQFDYWGQGTQVTVSS | low polyreactivity
QVQIVESGGGLVQAGGSLRLSCAASGSNNGYYTMGWYRQAPRKERELVAAINYSGGRTYYADSVKGRFTISRDNAKNTVYFQMNSLKPEDTAVYYCARAYYYGSDIMDYWGQGTQVTVSS | high polyreactivity
QVQLVESVGGLVQAGGRLRLSCAASGSIFWFNAMGWYRQAPGKEREFVASISRSGGTTYYADSVKGRFTISRDNAKNTVYLQMNSLKPEDTAVYYCNARAYGNGLGTGYFGNHRYDYWGQGTQVTVSS | low polyreactivity
QVQLVESGGGLVQAGGSLRLSCAPSGIIFPEYDMGWYRQPPGKERELVAAITKSDGRTYYADSVKGRFTISRDNAKNSVYLQMNSLKPEDTAVYYCNADPSVVAYVGFVSWGQGTQVTLSS | low polyreactivity
QVQLVESGGGLVQAGASLSLSCAASGYIFARYAMGLYIQSPGKERELVAAIRGDGGSTYYADSVKGRFTISRDNAKNTVYLQMNSLKPVDTAVYYCSTEIPWVSYYWTYYFWGQCTQVTVSS | high polyreactivity
QVQLVESGGGLVQAGGSLRLSCAASGRIFGKYVMGWYRQAPGKERELVAAISRSGGSTSYADSVKGRFTISRDNAKNTVYLQMNSLKPEDTAVYYCAASPAGYLAPRGYYWGQGTQVTVSS | high polyreactivity
QVQLVESGGGLVQAGGSLRLTSAASGSTFLKYTMGWYRQAPGKERELVAGITYSGGSTSYADSVKGRFTISRDNAKNTVYFQMNSLKPEDTAVYYSAAARNTVYSYRGLFYWGQGTQVTLSS | high polyreactivity
QVQLVESGGGLLQAGRSLRLTCAASGRTFRAYAMGWYRQAPGKEMELVASISRRGGSTYYADSVKGRFTISRDNAKNSVYLQMNSLKPEDTAVSYCAASDKYLQYDYWGQGSQVTVSS | high polyreactivity
QVQLVESGGGLVQAGGSLRLSCAASGYIYYYYAMGWYRQAPVKERELVAAITFSGGSTYYADSVKGRFTISRDNAKNTVYLQMNSLKPEDTAVYYCAKVELRDSALLGSDEYDYLGQGTQVTVSS | low polyreactivity
QVQHVESGGGLVQAGGSLRLSCAASGSTFDGYAMGWYRQAPGKERELVAAISRSGGRTYYADSVKGRFTISRDNAKNTVYLQMTSLKPEDTAVYYCAALYPYKREDYWGQGTQVTVSS | high polyreactivity
QVQLVESGGGLVQAGGSLRLSCAASGSTFESNAMGWNRQAPGKERDLVASISGSGGSTFYADSVKGSFTISRDNAKNTVYLQMNILKPEDTGVYYCAAYKEPYYEEYGYWGQGTQVTVSS | low polyreactivity
QVQLVESGGGLVQAGGSLRVSCAASGIIFRIYAMGWYRQAPGKEREFVAAISGSGDSTYYADSVKGRLTISRDNAKTTVYLQMNSLKPEDTAVYYCAADWTLVYYHEDYWGQGTQVTVSS | low polyreactivity
QVQLVESGGGLVQAGGSLRLSCAASGSTFFANAMGWFRQAPGKAREFVAVITWGGSTYYADSVKGRFTISRDNAKNSVYLQMNSLKPEDTAVYYCNADYQPPGILYHWWRYYRGDYWGQGTQVTVSS | low polyreactivity
QVQLVQTGGGLVQAGGSLRLSCAASGRIFYRYDMGCYRQAPGKERSLVAAIRYSGGRTYYADSVKGRFTISRDNAKNTVYLQMNSLKPEDNAVYYCADDEFFWSSEEDYWGQVTQVTVSS | low polyreactivity
QVQLVESGGGLVQAGGSLRLSCASSGRILYGSAMGWYRQAPGKERALVAAISWRSGSTYYADSVKGRFTISRDNAKNTVYLQMNSLKPEDTEVYYCAAGYGGYPGGYYWGQGTQVTVSS | high polyreactivity
QVQLVESGGGLVQAGGSLRLSCAASGFIFKRYGMGWYRQAPGKERELVAAISYSGGSTYYADSVKGRFTISRDNAKNTVYLQMNSLKPEDTAVYYCKATIHYNAGWTMGSWGQGTQVTVSS | high polyreactivity
QVQLVESGGGLVQAGGSLRLSCAASGRIFPRYAMGWYRQAPGKERELVARITRRGGITYYADSVKGRFTISRDNAKNSVYLQMNSLKPEDTAVYYCNVDYYRGGDFSYGYDYWGQGTQVTVSS | high polyreactivity
QVQLVESGGGLVQAGGSLRLSCAASGFTFRAYAMGWYRQAPGKEREFVAAISYSGGSTYYADSVKGRFTISRDNAKNTVDLQMNSLKPEDTAVYYCATVLYSVPRYNYWGQGTQVTVSS | high polyreactivity
QVQLVESGGGLVQAGGSLRLSCDATGSIISYNTMGWYRQAPGKERELVAAITWGGRTYYADSVKGRFTISRDNAKNTVYLQMNSLKPEDTAVYYCAKRIRGGAPTYDYWGQRTQVTVSS | low polyreactivity
QVQLVESGRGLVQAGGSLRLSCAASGITFYTYAMGWYRQEPGKARELVATISSGGSTDYADSVKGRFTISRDNAKITVYLQMNSLKPEDTAVYYCADQYSYRIYYLYDYWGQGTQVTVSS | low polyreactivity
QVQLVESGGGLVQAGGSLRLSCAASGNIFYAYDMGWYRQAPGKERELVAAITNGDSTDYADSVKGRFTISRDNAKNTVYLQMNSLKPEDTAVYYCATDIHSVHNNRDKHDYDYWGQGTQVTVSS | low polyreactivity

Sequence | polyreactivity (PSR sort gate)
QVQLVESGGGLVQAGGSLRLSCATSGRTFWFYAMGWYRQAPGKERELVAAISSGGSTNYADSVKGRFTISRDNAKNTVYLQMNSLKPEVTAVYYCAKVGNIPYGTRYYSNRYDYWGQGTQVTVSS | low polyreactivity
QVQLVESGGGLVQAGGSLRLSCAASGSTSVVNPMGWSRPAPGTERELVAAISWSGGSTYYADSVKGRFTISRDNAKNTVYLQMNSLKPEDTAVYYCAKRRVYYGSRYNYWGQGTQVTVSS | high polyreactivity
QVQLVESGGGLVQAGGSLRISCAASASIFPGYAMGWYRQAPGKERELVAAISWSGGRTYYADSVKGRFTISRDNSKNTFYLQMNSLKPEDTAVYYCAARKYHLRSAYDYWGQGTQVTVSS | low polyreactivity
QVQLVESGGGLDQAGGSLRLSCAASGSTFYSYDMGWYRQAPGKEREMVAAISSGGSTYYADSVKGRFTISRDNAKNTVYLQMNSLKPEDTEVYYCAAKRRATTGYRYDYWGQGTQGTVSS | high polyreactivity
QVQLVESGGGLVQAGGSLRLSCAASGRIFGENAMGWYRQAPGKEWEFVAVISISDASTYYADSVKGRFTISRDNAKNSVDFQMNSLKPEDTAVYYCAADLTDFLYVASDYWGQGTQVTVSS | low polyreactivity
QVHLVESGGGLVQAGGSLRLSCAASGSIFRKYAMGWYRQAPGKERELLAAISVSGGSTYYADSVKGRFTISRDNAKNTVYLQMNSLNPEDTAVYYCAADSGPFNRYAPRGYWGQGTQVTVSS | low polyreactivity
QVQLVESGGGLVQAGGSLRLSCAASGRTFQPYAMGWYRQAPGKERELVAAITSIGGSTFYADSVKGRFTISRDNAKNTVYLQMNSLKPEDTAVYYCNARRYWLRYDYWGQGTQVTVSS | low polyreactivity
QVQLVESGGGLVQAGGSLRLSCAASGSIFPHYAMGWYRQAPGKERELVAAISRSGTSTYYADSVKGRFTISRDNAKNTVYLQMNSLKPEDTAVYYCAAGYWFSYSRVTRYDYWGQGTQVTVSS | high polyreactivity
QVKLEESGGGLVQAGGSLRLSCAASGRTFTTYSMGCYRQAPGKERELVAAISGSGGSTYYADSVKGRFTISRDNAKNSVYVQMNSLKPEDTAVYYCATAYYYHGGYYYPYDDYWGQGTQVTVSS | low polyreactivity
QVQLVESGGGLVQAGGSLRLSCAASGRILIGNALGWYRQAPGKERELVAAISKRGGSTYYADSVKGRFTMSRDNAKNTDYLHMNSLKPEDTAVYYCNIESLYREFDYWGQGTLVTVSS | low polyreactivity
QVQLVESGGGLVQAGGSLRLSCAASGSTFNRYAMGWYRQAPGKARELVATNNSGTSTNYADSVKGRFTISRDNAKNTVYLQKNSLKPEDTAVYYCAKTFRRSVGGYGYEYWGQGTQVTVSS | low polyreactivity
QVQLVESGGGLVQAGGSLRLSCAASGRTFRKYGMGWYRPAPGTERELVAAITRSGGSTYYADSVKGRFTISRDNAKNTVYLQMNCLKPEDTSVYYCARSPVVVGSFLSYDYLGQGTQVTVSS | high polyreactivity
QVQLVESGGGLVQAGGSLRLSCAASGLIFAKYAMGWYRQAPGKERELVAGITSGGGTYYADSVKGRFTISRDNAKNTVYLQMNSLKPEDTAVYYCAVGREYFRWIRYDYDYWGQGTQVTVSS | low polyreactivity
QVQLVESGGGLVQAGGSLRLSCAASGSIFWPNAMGWYRQAPGKERELVASITRAGSTNYADSVKGRFTISRDNAQNTVYLQMNSLKPEDTAVYYCAAYFWGGYNYWGQGTQVTVSS | low polyreactivity
QDQLVESGGGLVQAGGSLGLSCAASGSIFGFYDMGWSRQAPGKERELVAAITSGDSTHYADSVKGRFTISRDNAQNTVYVQMNSLKPVDTAVYYCAASAPYRYYRSAYYSWGQGTQVTVSS | low polyreactivity
QVQLVESGGGLDQAGGSLRLSCAASGSIFDTYAMGWYIQAPGKSWELVAAISWGGGSTYYADSVKGRFTISRDNAKNTVYLQMNSLKPEDTAVYYCATEYFFLGGWYEYWGQGTQVTVSS | high polyreactivity
QVQLVESGGGLVQAGGSLRLICAASGILVYNAMGWYRQAPGKERELVAAISARGGRKYYADSVKGRFTISRDNAKNTVYLQMYSLKTEDTAVYYCATLETSGVNYWGQGTQVTVSS | high polyreactivity
QLQLVESGGGLVQAGGSLRLSCAASGSIFFNYTMGWYRQAPGNERELVAAINSSGGRTNYADSVKGRFTISRDNAKNTVYLQMNSLKPEDTAVYYCAAGQSRYRELEYWGQGTQVTVSS | low polyreactivity
QVQLVESGGGLVQAGGSLRLSCAASGITFLVNAMGWYRQAPGKERELVATITSGDSTSYADSVKGRFTISRDNAKNTVYLQMNSLKPEDTAVYFCAARPGYWAQYYPVGSRNYYWGQGTQVTVSS | low polyreactivity
QVQLVESGGGLVQAGGSLRLSCAASGSIFPYNAMGWYRPAPGKERELVATISSGGSTNYADSVKGRFTISRDNAMNTVYLQMNIMKPEDTAVYYCAKETIGQDPVSGAWARHEYDYWGQGTQVTVSS | low polyreactivity
QVQLQESGGGLVQAGGSLRLSCAASGTITVLYKMGWFRQAPGKEREFVASINYGTSTYYADSVKGRFTVSRDSAKNTVYLQMNSLKPEDTAVYFCSAAFRWQDVYRYWGQGTQVTVSS | low polyreactivity
